Key:
HUVE cells = test: Thymidine incorporation (mitogen potentiation), HUVE cells; format: cell-based, human
Protocol: Human umbilical vein endothelial cells were plated essentially as described above for 3T3 cells and exposed to a constant amount of murine Cyr61; controls received no Cyr61. Different plates were then exposed to different levels of bFGF, comprising a series of bFGF concentrations ranging from 0-10 ng/ml. […] At 1 ng/ml bFGF, however, HUVE cells increased their thymidine incorporation in the presence of bFGF to 6×10^2 cpm; in the presence of 1 ng/ml bFGF and murine Cyr61, HUVE cells incorporated 1.3×10^3 cpm. At 10 ng/ml bFGF, cells exposed to bFGF incorporated about 1.8×10^3 cpm thymidine; cells receiving 10 ng/ml bFGF and Cyr61 incorporated approximately 6.1×10^3 cpm.
The capacity of murine Cyr61 to potentiate the mitogenic activity of bFGF was verified by a thymidine incorporation assay involving HUVE cells and various combinations of bFGF, Cyr61, and anti-Cyr61 antibodies. Cells were plated and grown as described above. The following combinations of supplements (final plate concentrations noted parenthetically) were then pre-incubated for 1 hour before addition to individual plates: 1) pre-immune antiserum (3%); 2) bFGF (15 ng/ml) and pre-immune antiserum (3%); 3) pre-immune antiserum (3%) and Cyr61 (4 μg/ml); 4) pre-immune antiserum (3%), Cyr61 (4 μg/ml), and bFGF (15 ng/ml); 5) anti-Cyr61 antiserum (3%); 6) anti-Cyr61 antiserum and bFGF (15 ng/ml); 7) anti-Cyr61 antiserum (3%) and Cyr61 (4 μg/ml); and 8) anti-Cyr61 antiserum (3%), Cyr61 (4 μg/ml), and bFGF (15 ng/ml).
(§1) DNA synthesis for HUVE cells and NIH 3T3 fibroblasts was measured by thymidine incorporation as described previously (Kireeva et al., [1996]) with minor modifications. HUVE cells were grown in 24-well plates to a subconfluent state, serum-starved for 24 hours and treated with F12K medium containing 10% fetal bovine serum (FBS), 1 μCi/ml [^3H]-thymidine and 10 ng/ml basic Fibroblast Growth Factor (bFGF) (Gibco-BRL, Inc.) with various concentrations of Cyr61 and Fisp12 as indicated. NIH 3T3 fibroblasts were grown to subconlfluence, serum-starved for 48 hours, and treated with Minimal Essential Medium (MEM) containing 0.5% FBS, 1 μCi/ml [^3H]-thymidine, bFGF and various concentrations of Cyr61 or Fisp12. Thymidine incorporation into the trichloroacetic acid-insoluble fraction was determined after 24 hour incubation. Logarithmically grown mink lung epithelial cells (Mv1lu, CCL64) were treated with various concentrations of TGF-β1 (Gibco-BRL) and 2 μg/ml of Cyr61 or Fisp12 for 18 hours; [^3H]-thymidine was then added to 1 μCi/ml for 2 hours. Thymidine incorporation was determnined as described above.

cornea = test: Cornea assay for angiogenic factors; format: in vivo, rat; settings: for angiogenic effect in cornea assay: rat, in vivo
From the text: Another assay for modulators of angiogenesis is an in vivo assay for assessing the effect of a suspected modulator in the presence of an ECM signaling molecule-related biomaterial, such as Cyr61, on angiogenesis is the Cornea Assay. The Cornea Assay takes advantage of the absence of blood vessels in the cornea, which in the presence of an angiogenic factor, results in the detectable development of capillaries extending from the sclera into the cornea. Friedlander et al., Science 270:1500-1502 (1995). This ingrowth of new blood vessels from the sclera can be microscopically monitored. Further, the visually determined rate of migration can be used to assess changes in the rate of angiogenesis. These cornea assays may be performed using a wide variety of animal models. Preferably, the cornea assays are performed using rats. By way of example, an assay for suspected modulators of Cyr61 using this assay is disclosed. To perform this assay, Cyr61 is initially titrated using primary capillary endothelial cells to determine effective concentrations of Cyr61. Subsequently, Cyr61, in the presence or absence of a suspected modulator, is surgically implanted into the corneas of mammalian laboratory animals, e.g., rabbits or rats. In a preferred embodiment, Cyr61 (or Cyr61 and a suspected modulator) is embedded in a biocompatible matrix, using matrix materials and techniques that are standard in the art. Subsequently, eyes containing implants are visually observed for growth of the readily visible blood vessels within the eye. Control implantations may consist of physiologically balanced buffers embedded in the same type of matrix and implanted into eyes of the same type of laboratory animal receiving the Cyr61-containing implants.
Although rats of various sizes can be used in the cornea assay, a preferred size for the rats is 150-200 g/animal. Anesthesia is induced with Methoxyflurane and is maintained for 40-60 minutes with sodium pentobarbital (50 mg/kg, delivered intraperitoneally). The eyes are gently opened and secured in place by clamping the upper eyelid with a non-traumatic hemostat. Two drops of sterile proparacaine hydrochloride (0.5%) are then placed on each eye as to effect local anesthesia. Using a suitable surgical blade such as a No. 11 Bard Parker blade, an approximately 1.5 mm incision is made approximately 1 mm from the center of the cornea. […] Once the cornea pocket is made, the spatula is removed and the distance between the limbus and base of the pocket is measured to make sure the separation is at least about 1 mm. […]
Following surgery, animals are examined daily for seven days with the aid of a stereomicroscope to check for inflammation and responses. […] During this seven day period, animals are monitored for implant position and corneal exudate. […]

[1] = test system: mink lung epithelial cells (Mv1lu, CCL64); test: TGF-β inhibition of DNA synthesis; format: cell-based; settings: 2 μg/ml, 18 hours
Protocol: as §1

Row | Molecule | enhancement of FGF-induced DNA synthesis (HUVE cells; HUVE-cells, bFGF 10 ng/ml) | angiogenic effect in cornea assay (cornea) | effect on TGF-β inhibition of DNA synthesis [1] | thymidine incorporation, baseline (HUVE cells; 0-0.1 ng/ml bFGF, presence or absence of Cyr61, 72 hours) | thymidine incorporation with bFGF and Cyr61 (HUVE cells; 1 ng/ml bFGF) | thymidine incorporation with bFGF and Cyr61 (HUVE cells; 10 ng/ml bFGF) | eyes showing blood vessel growth after seven days (cornea; FGF 0.15 μM (six animals), Cyr61 1 μg/ml (seven animals))
1 | Fisp12: Cysteine-rich murine protein, SEQ ID NO:6, mouse ortholog of CTGF (protein, listed as Mus musculus) MLASVAGPISLALVLLALCTRPATGQDCSAQCQCAAEAAPHCPAGVSLVLDGCGCCRVCAKQLGELCTERDPCDPHKGLFCDFGSPANRKIGVCTAKDGAPCVFGGSVYRSGESFQSSCKYQCTCLDGAVGCVPLCSMDVRLPSPDCPFPRRVKLPGKCCKEWVCDEPKDRTAVGPALAAYRLEDTFGPDPTMMRANCLVQTTEWSACSKTCGMGISTRVTNDNTFCRLEKQSRLCMVRPCEADLEENIKKGKKCIRTPKIAKPVKFELSGCTSVKTYRAKFCGVCTDGRCCTPHRTTTLPVEFKCPDGEIMKKNMMFIKTCACHYNCPGDNDIFESLYYRKMYGDMA | enhance DNA synthesis induced by fibroblast growth factor | confirm the effect of angiogenic factors | enhanced the ability of TGF-β to inhibit DNA synthesis |  |  |  | 
2 | Cyr61: Cysteine-rich ECM signaling protein; murine sequence SEQ ID NO:2, recombinant from Baculovirus-infected Sf9 cells (protein, listed as Mus musculus) MSSSTFRTLAVAVTLLHLTRLALSTCPAACHCPLEAPKCAPGVGLVRDGCGCCKVCAKQLNEDCSKTQPCDHTKGLECNFGASSTALKGICRAQSEGRPCEYNSRIYQNGESFQPNCKHQCTCIDGAVGCIPLCPQELSLPNLGCPNPRLVKVSGQCCEEWVCDEDSIKDSLDDQDDLLGLDASEVELTRNNELIAIGKGSSLKRLPVFGTEPRVLFNPLHAHGQKCIVQTTSWSQCSKSCGTGISTRVTNDNPECRLVKETRICEVRPCGQPVYSSLKKGKKCSKTKKSPEPVRFTYAGCSSVKKYRPKYCGSCVDGRCCTPLQTRTVKMRFRCEDGEMFSKNVMMIQSCKCNYNCPHPNEASFRLYSLFNDIHKFRD |  | confirm the effect of angiogenic factors | enhanced the ability of TGF-β to inhibit DNA synthesis | approximately 4×10^2 cpm | 1.3×10^3 cpm | approximately 6.1×10^3 cpm | all seven

Source: patent publication US7521540B2, “CYR61 compositions and methods” (Munin Corporation, priority 1996, dated 2009)
